# How the values were obtained:
# Assay in all cases: native gel or EMSA
# [1] = biological target: 209-bp nucleosome core particle (human | Xenopus laevis)
# [2] = biological target: 12x nucleosome array (human | Xenopus laevis)
# [3] = biological target: 147-bp nucleosome core particle (human | Xenopus laevis)
substance,measurement,setting,value
CBP core-ZZ-TAZ2 (domain or fragment),Kd,[1],540 nM
same,Kd,[2],309 nM
same,Kd,[3],1000 nM
